Here are results for 40 sequences from the nanobody polyreactivity screen of Harvey et al. (2022).

A short description of this series: yeast display, Sf9 membrane polyspecificity reagent, FACS + sequencing; frameworks hold sequencing errors. The gist of the method: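 Galactose-induced (36–48 hours) yeast carrying a synthetic nanobody display library were exposed to 10% biotinylated, detergent-solubilized Sf9 membrane reagent at 4 °C for 1 hour. FACS followed streptavidin microbead enrichment, using low and high (top ~1%) gates for expression (anti-HA) and reagent binding (streptavidin). Colony PCR, MiSeq 2 × 250 sequencing and CDR-length filtering followed. Labels for polyreactivity reflect the gate of origin.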
On to “QVQLVESGGGLVQAGGSLRLSCAASGLIFDKYAMGWYRQAPGKERELVAAITRSSGTTYYADSVKGSFTISRDNAKNTVYLQMNSLKPEDTAVYYCATDVDKSLYDYWGQGTQVTVSS”, for which the “polyreactivity (PSR sort gate)” value is recorded as “low polyreactivity”.
With “QVQLVESGGGLVQAGGSLRLSCAASGLIFDSYDMGWYRQAPGKERELVAAIRRNGGSTYYADSVKGRFTISRDNAKNTVYLQMNSLKPEDTAVYYCAVDNSGYSGVYWVKMDYWGQGTQVTVSS” the entry was “low polyreactivity”.
The entry for “QVQLVESGGGLVQAGGSLRLSCAASGLIFESNAMGWYRQAPGKERELVAAITTNGGSTYYADSVKGRFTISRDNAKNTVYFQMNSLKPEVTAVYYCAALGLHQVIEYDYWGQGTQVTVSS” is “low polyreactivity”; for “QVQLVESGGGLVQAGGSLRLSCAASGLIFESYAMGWYRQAPRKERELFAAITRSGARTYYADSVKGRFSISRDNAKNTVYLQMNILKPEDTAVYYCAAAPWYFFDQYFNGISFGYYYWGQGTQLTVSS” it is “high polyreactivity”; for “QVQLVESGGGLVQAGGSLRLSCAASGLIFEYYAMGWYRQAPGKERELVAVINWSGASTYYADSVKGRFTITRDYAKNTVYLQMNSLKPEDTAVYYCAAGVLITGLRFDYWGQGTQVTVSS” it is “low polyreactivity”.
On to “QVQLVESGGGLVQAGGSLRLSCAASGLIFFTYAMGWYRQAPGKERELVATISRGGRTKYADSVKGRFTISRDNAKNTVYLQMNSLKPEDTAVSYCAAYLSRSYYAYDYWGQGTQVTVSS”, for which the “polyreactivity (PSR sort gate)” value is listed as “high polyreactivity”.
With “QVQLVESGGGLVQAGGSLRLSCAASGLIFGDYAMGWYRPAPGKERELVAAITGSVTRTYYADSVKGRFTISRDNAKNTVYLQMNSLKPEDTAVYYCATRVHYIGFYDYDYWGQGTQVTVSS”, the “polyreactivity (PSR sort gate)” value is reported as “low polyreactivity”.
With “QVQLVESGGGLVQAGGSLRLSCAASGLIFGGYAMGWYRQAPGKERELVAAIYWDDGDTYYADSVKGRFTISRDNAKNTVYLQMNSLKTEDTAVYYCNAAGALIFGEGYYVEYDYDYWGQGTQVTVSS” the entry was “low polyreactivity”.
As to “QVQLVESGGGLVQAGGSLRLSCAASGLIFGGYAMGWYRQAPGKERELVATITSGGSTNYADSVKGRFTISRDNAKNTVYLQMNSLKPEDTAVYYCAAAERQGFPSVYPTYQWDYDYWGQGTQVTVSS”, the “polyreactivity (PSR sort gate)” value is recorded as “low polyreactivity”.
The entry for “QVQLVESGGGLVQAGGSLRLSCAASGLIFGNNAMGWYRQAPGKERELVAGIDWSGGSTYYADSVKGRFTISRDNAKNTVDLQMNSLKPEDTAVYYCNAALYVSGHYPNDYWGQGTQVTVSS” is “low polyreactivity”; for “QVQLVESGGGLVQAGGSLRLSCAASGLIFGRNAMGWYRQAPGKERELVAAISYRGGSTYYADSVKGRFTISRDNAKNTVYLQMNSLKPEDTAVYYCNRVWYAWGTGYDYWGQGTQVTVSS” it is “high polyreactivity”.
As to “QVQLVESGGGLVQAGGSLRLSCAASGLIFGRYAMGWYRQAPGKERELVAAITCGTNTNYADSVKGRFTISRDNAKNTVYLQMNSLKPEDTAVYYCGKASGRCSLARGATYSVDYWGQGTQVTVSS”, the “polyreactivity (PSR sort gate)” value is reported as “high polyreactivity”.
Turning to “QVQLVESGGGLVQAGGSLRLSCAASGLIFGSYAMGWSRQAPGKERELVAAISRSGGSTYYADSVKGRFTISRDNAKNTVYLQMNSLKPEDTAVYYCAARGYPLGIGRIKRNYWGQGTQVTVAS”, the “polyreactivity (PSR sort gate)” value is given as “high polyreactivity”.
Take “QVQLVESGGGLVQAGGSLRLSCAASGLIFGSYAMGWYRQAPGKEMELVAAISWSGGSTNYADSVKGRFTISRDNSKNTVDLQMNSLKPEDTAVYYCAARGYPLGIGRIKRNYWGQGTQVTVSS”: the “polyreactivity (PSR sort gate)” value is “high polyreactivity”.
The entry for “QVQLVESGGGLVQAGGSLRLSCAASGLIFGSYVMGWYSQAPGKERELVAAISTSGGRTYYADSVKGRFTISRDNATNTVYLQMNSLKPEDTAVYFCAASRWHGYNYWGQGTQVTVSS” is “high polyreactivity”; for “QVQLVESGGGLVQAGGSLRLSCAASGLIFGVNAMGWYRQAPGKERELVAAISRDSDTNYADSVKGRFTISRDNAKNTDYLQMNSLKPEDTAVYYCNAYSEWPVPSPPRSQSLDYWGQGTQVTVSS” it is “low polyreactivity”; for “QVQLVESGGGLVQAGGSLRLSCAASGLIFGWYAMGWYRQAPGKERELVAGISGSGGITYYADSVKGRFTISRDNAKNTVYLQMNSLKPEDTAVYYCAARPGYVHIDFDYWGQGTQVTVSS” it is “low polyreactivity”.
Regarding “QVQLVESGGGLVQAGGSLRLSCAASGLIFGYNAMGWYRQAPGKEREFVAGISVIDGRTYYADSVKGRFTISRDNAKNTVYLQMNSLIPEDTAVYYCAADRWYKYYFLTYGYWGQGTQVTVSS”, the “polyreactivity (PSR sort gate)” value was “low polyreactivity”.
With “QVQLVESGGGLVQAGGSLRLSCAASGLIFGYNAMGWYRQAPGKEREFVAGISVIDGRTYYADSVKGRFTISRDNAKNTVYLQMNSLKPEDTAVYYCAADRWYKYYFLTYGYWGQGTQVTVSS” the entry was “low polyreactivity”; with “QVQLVESGGGLVQAGGSLRLSCAASGLIFGYNAMGWYRQAPGKERELVAAISSSGGSTSYADSVKGRFTISRDNAKNTVYLQMNSLKPEDTAVYYCAAKPGRYADYDYNSWGQGTQVTVSS”, “low polyreactivity”.
With “QVQLVESGGGLVQAGGSLRLSCAASGLIFGYNAMGWYRQAPGKERELVAAISWSGGRTYYADSVKGRFTISRDNAKNTVYLQMNSLKPEDTAVYYCAAVVRHSYFRDDHWGQGTQVTVSS” the entry was “high polyreactivity”; with “QVQLVESGGGLVQAGGSLRLSCAASGLIFGYYAMGWYRQAPGKERELVAAISSSGTRTYYADSVKGRFTISRDNAMNTVYLQMNSLKPEDTAVYYCNADSYGSRYEYWGQGTQVTVSS”, “high polyreactivity”; with “QVQLVESGGGLVQAGGSLRLSCAASGLIFHYYAMGWYRQAPGKERELVAAISSGGSTNYADSVKGRFTISRDNAKNTVYLQMNSLKPLDTAVYYCAARSGARRGNVYVYYEYYYWGQGTQVTVSS”, “low polyreactivity”.
With “QVQLVESGGGLVQAGGSLRLSCAASGLIFITYAMGWYIQAPGKERELVATITLRGGSTYYADSVKGRFTISRDNAKNTVYLQMNSLKPEDTAVYYCAADVGYWGRSRGYPSDDYDYWGQGTQVTVSS” the entry was “low polyreactivity”; with “QVQLVESGGGLVQAGGSLRLSCAASGLIFKFYAMGWYRQAPGKERELVARISSCGGSTYYADSVKGRFTMSRDNAKNTVYLQMNSLKPEDTAVYYCAAGDYYGDRYARSSIFSYYYWGQGTQVTVSS”, “high polyreactivity”.
For the sequence “QVQLVESGGGLVQAGGSLRLSCAASGLIFKSYAMGWYRQAPGKERELVAAITWSGGRTYYADSVKGRFTISRDNAKNTVYLQMNSLKPEDTAVYYCAGREYLPPYYYWGQGTQVTVSS”, the “polyreactivity (PSR sort gate)” value is reported as “high polyreactivity”.
With “QVQLVESGGGLVQAGGSLRLSCAASGLIFKYYAMGWYRPAPGKERELVAAITGRGGSTYYADSVKGRFTISRDNAMNTVYLQMNSLKPEDTAVYYCARRRTYSFNPVTYDWGQGTQVTVSS” the entry was “high polyreactivity”; with “QVQLVESGGGLVQAGGSLRLSCAASGLIFLGYAMGWYRQAPGKERELVASIRTGGSTSYADSVKGRFTISRDNAKNTVYLQMNSLKPEDTAVYYCNARDYASGTEGDYWGQGTQVTVSS”, “low polyreactivity”; with “QVQLVESGGGLVQAGGSLRLSCAASGLIFLYNAMGWYRQAPGKERELVAAISRSGGSTYYADSVKGRFTISRDNAKNTVYLQMNSLKPEDTAVYYCNARWPLGVSRGGMGYWGQGTQVTVSS”, “high polyreactivity”.
The entry for “QVQLVESGGGLVQAGGSLRLSCAASGLIFNEYAMGWYRQAPGKERELVAAISWSDGGTSYADSVKGRFTISRDNAKNTVYLQMNSLKPEDTAVYYCAKGPRGAHRTHGAYVEMEYWGQGTQVTVSS” is “low polyreactivity”.
Regarding “QVQLVESGGGLVQAGGSLRLSCAASGLIFNKNSMGWYRQAPGKERELVASNTTTGARTYYADSVKGRFTISRDNAKNTVYLQMNSLKPEDTAFYYCASVHWGWRSITGGVGYDSWGQGTQVTVSS”, the “polyreactivity (PSR sort gate)” value is given as “high polyreactivity”.
“QVQLVESGGGLVQAGGSLRLSCAASGLIFNNNAMGWYRQAPGKERELVAAISYRGGSTYYADSVKGRFTISRDNAKNTVYLQMNSLKPEDTAVYYCAARKISKYDYWGQGTQVTVSS”: the “polyreactivity (PSR sort gate)” value is “high polyreactivity”.
With “QVQLVESGGGLVQAGGSLRLSCAASGLIFNRYTMGWYRQAPGKERELVAAINRSGGNTYYADSVKGRFTISRDNAKNTVYLQMNSLKPEDTAVYYCNADYFSRTGYKYDYWGQGTQVTVSS”, the “polyreactivity (PSR sort gate)” value was “high polyreactivity”.
The entry for “QVQLVESGGGLVQAGGSLRLSCAASGLIFNVNVMGWYRQAPGKERELVAAIDYSGGSTYYADSVKGRFTISRDNAKNTVFLQMNSLKPEDTAVYYCSADDAAWPYSWWGFDYWGQGTQVTVSS” is “low polyreactivity”; for “QVQLVESGGGLVQAGGSLRLSCAASGLIFPLYAMGWYRHAPGKERELVAAITSSGGSTYYADSVKGRFTISRDNAKNTVYLQMNSLKPEDTAVYYCAADYSVYWLDYGYWGQGTQVTVSS” it is “low polyreactivity”; for “QVQLVESGGGLVQAGGSLRLSCAASGLIFPRNAMGWYRQAPGKERELVAAITSGGGTNYADSVKWRFTISRDNAKNTVYLQMNSLIPEDTAVYYCAADYSVASPDGPYVIYDYWGQGTQVTVSS” it is “low polyreactivity”.
With “QVQLVESGGGLVQAGGSLRLSCAASGLIFPWNAMGWYRQAPGKERELVAAINGRDGSTYYADSVKGLFTISRDNAKNTVYLQMNSLKPEDTAVYYCAKGPSGVRTYREYDSWGQGPQVTVSS” the entry was “low polyreactivity”; with “QVQLVESGGGLVQAGGSLRLSCAASGLIFPYYAMGWYRQAPGKERELVAAISRSGDSTYYADSVKGRFTISRDNAKITVYLQMNSLKPEDTAFYYCAAVLSYSYVRYNYWGQGTQVNVSS”, “high polyreactivity”.
The entry for “QVQLVESGGGLVQAGGSLRLSCAASGLIFQVYDMGWYRQAPGKERELVAAISSGSNTNYADSVKGRFTISRDNAKNTVYLQMNSLKPEDTAVYYCAASWGYGALTPDMGYWGQGTQVTVSS” is “low polyreactivity”; for “QVQLVESGGGLVQAGGSLRLSCAASGLIFQWYAMGWYRQAPGKERELVAAITGSGGSTYYADSVKGRFTISRDNAKNTVYLQMNSLKPEDTAVYYCNAGASRRYGYWGQGTQVTVSS” it is “high polyreactivity”.
